Results taken from publication PMC10653861, “Three small partner proteins facilitate the type VII-dependent secretion of an antibacterial nuclease” (mBio, 2023).

Biological target: the molecule itself
Assay: cross-linking; purified complexes from the major SEC peaks, 0.5 mg/mL in 50 mM HEPES pH 7.5, 150 mM NaCl, 0.1% glutaraldehyde for 30 min at room temperature, quenched with tris; SEC and SDS-PAGE with Coomassie staining

B1: EsaDEG trimer (complex)
chain 1: MTKDIEYLTADYDNEKSSIQSVIDAIEGQDFLDVDTTMDDAVSDVSSLDEDGAISLTSSVVGPQGSKLMGYYQNELYDYASQLDSKMKEIIDTPFIEDIDKAFKGITNVKLENILIKNGGGHGRDTYGASGKIAKGDAKKSDSDVYSIDEILKSDQEFVKVIDQHYKEMKKEDKKLSKSDFEKMMTQGASCDYMTVAEAEELEEQKKKEEAIEIAALAGMVVLSCINPVAGAVAIGAYSAYSAANAATGKNIVTGRKLSKEERIMEGLSLIPLPGMGFLKGAGKSLMKLGFKGGEKFAVKTGLQKTMQQAVSRISPKMGMMKNSVLNQSRNFAQNTHVGQMLSNMRGQATHTVQQSRNWIGQQAQNVKRIVNNGLDKEIAHPFKQQLAPAGMGGIKFAETTTLRNMGQNIKRAVTPQNHVTHGPKDSMVRSEGKHSISSHEMNSSKYVESPNYTKVEFGEHYARLRPKKLKANIEYTTPTGHIYRTDHKGRIKEVYVDNLSLKDGDRNSHAQRTVGGEDRLPDDDGGALIARMFGGSKDIDNLVAQSKFINRPFKEKGHWYNLEKEWQEFLNSGKEVKNIKMEVKYSGNSQRPTIFKVEYEINGERNIRRILNK
chain 2: MKDVKRIDYFSYEELTILGGSKLPLVNFELFDPSNFEEAKAALIEKELVTENDKLTDAGFKVATLVREYISAIVNIRINDMYFAPFSYEKDEYILLSRFKNNGFQIRIINKDIAWWSIVQSYPLLMRQEKSNDWDFKQIDDETLENLNNESIDTIGRVLEIEIYNHQGDPQQSLYNIYEQNDLLFIRYPLKDKVLNVHIGVINTFIRELFGFDTDENHINKAEE
chain 3: MTFEEKLSKIYNEIANEISSMIPVEWEKVYTMAYIDDGGGEVFFNYTKPGSDDLNYYTNIPKEYNISVQVFDDLWMDLYDLFEELRDLFKEEDLEPWTSCEFDFTREGELKVSFDYIDWINSEFGQIGRQNYYKYRKFGILPETEYEINKVKEIEQYIKELEE
notes: EsaD nuclease toxin of Staphylococcus aureus with H528A, as m1; EsaE chaperone of Staphylococcus aureus, as m5; EsaG immunity protein of Staphylococcus aureus, as m6; also called EsaDEG complex; not shown: His6, C-terminal, kept; copies: + +
Q: Does B1 bind?
A: binds
